B1: MBP–Duo1 complex (complex, S. cerevisiae)
chain 1: MSEDKAKLGTTRSATEYRLSIGSAPTSRRSSMGESSSLMKFADQEGLTSSVGEYNENTIQQLLLPKIRELSDSIITLDSNFTRLNFIHESLADLNESLGSLLYGIMSNSWCVEFSQAPHDIQDDLIAIKQLKSLEDEKNNLVMELSNMERGIKRKKDEQGENDLAKASQNKQFNQPLFPSSQVRKYRSYDNRDKRKPSKIGNNLQVENEEDYEDDTSSEASFVLNPTNIGMSKSSQGHVTKTTRLNNNTNSKLRRKSILHTIRNSIASGADLPIENDNVVNLGDLHPNNRISLGSGAARVVNGPVTKNRNSMFSGRAERKPTESRHSVAKKTEKKINTRPPFR
chain 2: MSEQSQLDDSTIDKLIPQIFNEMRSNLNNTTNKFPKSTGGGASDNISANSNSIRSFNSITTQSLLKESESLDKITAMIKNVTAALKNNLPVYVNQVHEVCKSTNSILDSWINIHSQAGYIHKLMSDQTYLKLINDRLHNENVNTNDEDGSTLHNVIALKKKEILDLRQKLENRKGEKDAAPAKPPNQGLNPRYGVQSGRRPVPSAGISNNGRVRKTHVPASKRPSGIPRVTNRWTKPTASSSRKMFR
chain 3: MDSASKEETLEKLDQEITVNLQKIDSNLSFCFHKITQDIIPHVATYSEICERIMDSTEWLGTMFQETGLVNLQANAAAPVGNAPVKSLVSNNVGIFPTSAEEASRQSQTDNGPNEADSAVHVNRDVHSMFNNDSIDDFHTANITSTGQILKLPDSSDEDTGSEAVPSREQTDLTGEGHGGADDEQDESTIQRQSRKRKISLLLQQQYGSSSSMVPSPIVPNKMRKQLAHEEHINNDGDNDDENSNNIESSPLKQGHHHPKGQADDNNEGPDEEESTKEVPKPGTIIHFSTNR
chain 4: MGESLDRCIDDINRAVDSMSTLYFKPPGIFHNAILQGASNKASIRKDITRLIKDCNHDEAYLLFKVNPEKQSVSRRDGKEGVFDYVIKRDTDMKRNRRLGRPGEKPIIHVPKEVYLNKDRLDLNNKRRRTATTSGGGLNGFIFDTDLIGSSVISNSSSGTFKALSAVFKDDPQIQRLLYALENGSVLMEEESNNQRRKTIFVEDFPTDLILKVMAEVTDLWPLTEFKQDYDQLYHNYEQLSSKLRFIKKEVLLQDDRLKTMSQYHPSSSHDVAKIIRKEKDEIRRLEMEIANLQE
chain 5: MTDALEQSVLALEGTVSVLKDSVESLKCANEPSTNLASTMLQTKRVFRLVPEYDVERSKLDLIEEVEPLVRTLGDKLRKSMGRMQRELDTLQQTYELNDLRLKKNISMDDDDALNSPDMGQEYEGRDADDVVMMASSTNEELEELKKLKEKKKQLENKLEILKQK
chain 6: MMASTSNDEEKLISTTDKYFIEQRNIVLQEINETMNSILNGLNGLNISLESSIAVGREFQSVSDLWKTLYDGLESLSDEAPIDEQPTLSQSKTK
chain 7: MDSIDEQIAIKRKELQSLQKITSLTDGLKIQLTELNEQIKEMGMNADSVAQLMNNWDSIINNISQASLGLLQYAEGDYEIGPWKDSKKKESEQSNETGLEAQENDKNDEDNDEDEDLVPLPETMVRIRVDGNE
chain 8: MEHNLSPLQQEVLDKYKQLSLDLKALDETIKELNYSQHRQQHSQQETVSPDEILQEMRDIEVKIGLVGTLLKGSVYSLILQRKQEQESLGSNSK
chain 9: MENPHEQVQANILSRIIGNVKRLNESVAILNQELVTINNRNKNLEIMGAICDNYHSSVQFNLEATNNKKPPL
chain 10: MNANKQRQYNQLAHELRELQTNLQETTKQLDIMSKQCNENLVGQLGKVHGSWLIGSYIYYMEQMLGKTQ
B2: MBP–Spc34 complex (complex, S. cerevisiae)
chain 1: MSEDKAKLGTTRSATEYRLSIGSAPTSRRSSMGESSSLMKFADQEGLTSSVGEYNENTIQQLLLPKIRELSDSIITLDSNFTRLNFIHESLADLNESLGSLLYGIMSNSWCVEFSQAPHDIQDDLIAIKQLKSLEDEKNNLVMELSNMERGIKRKKDEQGENDLAKASQNKQFNQPLFPSSQVRKYRSYDNRDKRKPSKIGNNLQVENEEDYEDDTSSEASFVLNPTNIGMSKSSQGHVTKTTRLNNNTNSKLRRKSILHTIRNSIASGADLPIENDNVVNLGDLHPNNRISLGSGAARVVNGPVTKNRNSMFSGRAERKPTESRHSVAKKTEKKINTRPPFR
chain 2: MSEQSQLDDSTIDKLIPQIFNEMRSNLNNTTNKFPKSTGGGASDNISANSNSIRSFNSITTQSLLKESESLDKITAMIKNVTAALKNNLPVYVNQVHEVCKSTNSILDSWINIHSQAGYIHKLMSDQTYLKLINDRLHNENVNTNDEDGSTLHNVIALKKKEILDLRQKLENRKGEKDAAPAKPPNQGLNPRYGVQSGRRPVPSAGISNNGRVRKTHVPASKRPSGIPRVTNRWTKPTASSSRKMFR
chain 3: MDSASKEETLEKLDQEITVNLQKIDSNLSFCFHKITQDIIPHVATYSEICERIMDSTEWLGTMFQETGLVNLQANAAAPVGNAPVKSLVSNNVGIFPTSAEEASRQSQTDNGPNEADSAVHVNRDVHSMFNNDSIDDFHTANITSTGQILKLPDSSDEDTGSEAVPSREQTDLTGEGHGGADDEQDESTIQRQSRKRKISLLLQQQYGSSSSMVPSPIVPNKMRKQLAHEEHINNDGDNDDENSNNIESSPLKQGHHHPKGQADDNNEGPDEEESTKEVPKPGTIIHFSTNR
chain 4: MGESLDRCIDDINRAVDSMSTLYFKPPGIFHNAILQGASNKASIRKDITRLIKDCNHDEAYLLFKVNPEKQSVSRRDGKEGVFDYVIKRDTDMKRNRRLGRPGEKPIIHVPKEVYLNKDRLDLNNKRRRTATTSGGGLNGFIFDTDLIGSSVISNSSSGTFKALSAVFKDDPQIQRLLYALENGSVLMEEESNNQRRKTIFVEDFPTDLILKVMAEVTDLWPLTEFKQDYDQLYHNYEQLSSKLRFIKKEVLLQDDRLKTMSQYHPSSSHDVAKIIRKEKDEIRRLEMEIANLQE
chain 5: MTDALEQSVLALEGTVSVLKDSVESLKCANEPSTNLASTMLQTKRVFRLVPEYDVERSKLDLIEEVEPLVRTLGDKLRKSMGRMQRELDTLQQTYELNDLRLKKNISMDDDDALNSPDMGQEYEGRDADDVVMMASSTNEELEELKKLKEKKKQLENKLEILKQK
chain 6: MMASTSNDEEKLISTTDKYFIEQRNIVLQEINETMNSILNGLNGLNISLESSIAVGREFQSVSDLWKTLYDGLESLSDEAPIDEQPTLSQSKTK
chain 7: MDSIDEQIAIKRKELQSLQKITSLTDGLKIQLTELNEQIKEMGMNADSVAQLMNNWDSIINNISQASLGLLQYAEGDYEIGPWKDSKKKESEQSNETGLEAQENDKNDEDNDEDEDLVPLPETMVRIRVDGNE
chain 8: MEHNLSPLQQEVLDKYKQLSLDLKALDETIKELNYSQHRQQHSQQETVSPDEILQEMRDIEVKIGLVGTLLKGSVYSLILQRKQEQESLGSNSK
chain 9: MENPHEQVQANILSRIIGNVKRLNESVAILNQELVTINNRNKNLEIMGAICDNYHSSVQFNLEATNNKKPPL
chain 10: MNANKQRQYNQLAHELRELQTNLQETTKQLDIMSKQCNENLVGQLGKVHGSWLIGSYIYYMEQMLGKTQ
B3: MBP–Spc19 complex (complex, S. cerevisiae)
chain 1: MSEDKAKLGTTRSATEYRLSIGSAPTSRRSSMGESSSLMKFADQEGLTSSVGEYNENTIQQLLLPKIRELSDSIITLDSNFTRLNFIHESLADLNESLGSLLYGIMSNSWCVEFSQAPHDIQDDLIAIKQLKSLEDEKNNLVMELSNMERGIKRKKDEQGENDLAKASQNKQFNQPLFPSSQVRKYRSYDNRDKRKPSKIGNNLQVENEEDYEDDTSSEASFVLNPTNIGMSKSSQGHVTKTTRLNNNTNSKLRRKSILHTIRNSIASGADLPIENDNVVNLGDLHPNNRISLGSGAARVVNGPVTKNRNSMFSGRAERKPTESRHSVAKKTEKKINTRPPFR
chain 2: MSEQSQLDDSTIDKLIPQIFNEMRSNLNNTTNKFPKSTGGGASDNISANSNSIRSFNSITTQSLLKESESLDKITAMIKNVTAALKNNLPVYVNQVHEVCKSTNSILDSWINIHSQAGYIHKLMSDQTYLKLINDRLHNENVNTNDEDGSTLHNVIALKKKEILDLRQKLENRKGEKDAAPAKPPNQGLNPRYGVQSGRRPVPSAGISNNGRVRKTHVPASKRPSGIPRVTNRWTKPTASSSRKMFR
chain 3: MDSASKEETLEKLDQEITVNLQKIDSNLSFCFHKITQDIIPHVATYSEICERIMDSTEWLGTMFQETGLVNLQANAAAPVGNAPVKSLVSNNVGIFPTSAEEASRQSQTDNGPNEADSAVHVNRDVHSMFNNDSIDDFHTANITSTGQILKLPDSSDEDTGSEAVPSREQTDLTGEGHGGADDEQDESTIQRQSRKRKISLLLQQQYGSSSSMVPSPIVPNKMRKQLAHEEHINNDGDNDDENSNNIESSPLKQGHHHPKGQADDNNEGPDEEESTKEVPKPGTIIHFSTNR
chain 4: MGESLDRCIDDINRAVDSMSTLYFKPPGIFHNAILQGASNKASIRKDITRLIKDCNHDEAYLLFKVNPEKQSVSRRDGKEGVFDYVIKRDTDMKRNRRLGRPGEKPIIHVPKEVYLNKDRLDLNNKRRRTATTSGGGLNGFIFDTDLIGSSVISNSSSGTFKALSAVFKDDPQIQRLLYALENGSVLMEEESNNQRRKTIFVEDFPTDLILKVMAEVTDLWPLTEFKQDYDQLYHNYEQLSSKLRFIKKEVLLQDDRLKTMSQYHPSSSHDVAKIIRKEKDEIRRLEMEIANLQE
chain 5: MTDALEQSVLALEGTVSVLKDSVESLKCANEPSTNLASTMLQTKRVFRLVPEYDVERSKLDLIEEVEPLVRTLGDKLRKSMGRMQRELDTLQQTYELNDLRLKKNISMDDDDALNSPDMGQEYEGRDADDVVMMASSTNEELEELKKLKEKKKQLENKLEILKQK
chain 6: MMASTSNDEEKLISTTDKYFIEQRNIVLQEINETMNSILNGLNGLNISLESSIAVGREFQSVSDLWKTLYDGLESLSDEAPIDEQPTLSQSKTK
chain 7: MDSIDEQIAIKRKELQSLQKITSLTDGLKIQLTELNEQIKEMGMNADSVAQLMNNWDSIINNISQASLGLLQYAEGDYEIGPWKDSKKKESEQSNETGLEAQENDKNDEDNDEDEDLVPLPETMVRIRVDGNE
chain 8: MEHNLSPLQQEVLDKYKQLSLDLKALDETIKELNYSQHRQQHSQQETVSPDEILQEMRDIEVKIGLVGTLLKGSVYSLILQRKQEQESLGSNSK
chain 9: MENPHEQVQANILSRIIGNVKRLNESVAILNQELVTINNRNKNLEIMGAICDNYHSSVQFNLEATNNKKPPL
chain 10: MNANKQRQYNQLAHELRELQTNLQETTKQLDIMSKQCNENLVGQLGKVHGSWLIGSYIYYMEQMLGKTQ

Target: the molecule itself
Assay: negative-stain EM with 2D class averages

Row | Protein | stoichiometry N
1 | B1 | 2
2 | B2 | 2
3 | B3 | 2

From paper PMC3216659 (Molecular Biology of the Cell, 2011)
